From US11278600B2, “Human alpha-galactosidase variants” (Codexis, Inc., priority 2014, dated 2022)

Columns and labels:
Format in all cases: biochemical
[1] = HTP-analysis of yeast culture supernatants, no challenge (MUGal hydrolysis); settings: activity of the variant/activity of Rd4BB (SEQ ID NO: 15)
Method in brief: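 Activity read as 4-methylumbelliferyl α-D-galactopyranoside hydrolysis: fluorescence (355/448 nm) after sodium carbonate stop, following 30-180 min at 37° C with 2 mM MUGal stock at pH 4.6–4.8. Enzyme source is unchallenged culture supernatant of INVSc1 yeast expressing GLA variants, grown 66-84 h at 30° C.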

[2] = HTP-analysis of supernatants pretreated with acid (MUGal hydrolysis); settings: activity of the variant/activity of Rd4BB (SEQ ID NO: 15); challenge at pH 3.7
Method in brief: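 GLA variants were secreted from INVSc1 yeast grown 66-84 h at 30° C. in SD-Ura with 2% glucose; supernatants were mixed with McIlvaine buffer pH 3.3-4.3 and held at 37° C. for 1-3 h. Residual activity on MUGal at pH 4.8 was then measured by fluorescence.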

[3] = HTP-analysis of supernatants pretreated with base (MUGal hydrolysis); settings: activity of the variant/activity of Rd4BB (SEQ ID NO: 15); challenge at pH 9.65
Method in brief: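 GLA variants secreted from yeast INVSc1; culture supernatants pre-incubated with McIlvaine buffer pH 7.0–8.2 or 200 mM bicarbonate pH 9.1–9.7 at 37° C. for 1–18 h. Residual activity: MUGal (4 mM stock) hydrolysis at pH 4.3–4.8, 37° C., 30–180 min, carbonate quench; fluorescence Ex 355/Em 448 nm.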

Molecule | Relative Activity of GLA Variants After No Challenge (NC) [1] | Relative Activity of GLA Variants After Challenge at pH 3.7 [2] | Relative Activity of GLA Variants After Challenge at pH 9.65 [3]
441 (protein, Synthetic Polypeptide sequence of Variant No. 441 of mature Human GLA) LDNGLARTPTMGWLHWERFMCNLDCQEEPDSCISEKLFMEMAERMVSEGWKDAGYEYLCIDDCWMAPQRDSEGRLQADPQRFPHGIRQLANYVHSKGLKLGIYADVGNKTCAGFPGSFGYYDIDAQTFADWGVDLLKFDGCYCDSLENLADGYKHMSLALNRTGRSIVYSCEWPLYMWPFQKPNYTEIRQYCNHWRNFADIDDSWKSIKSILDWTSRNQERIVDVAGPGGWNDPDMLVIGNFGLSWDQQVTQMALWAIMAAPLFMSNDLRVISPQAKALLQDKDVIAINQDPLGKQGYQLRKGDNFEVWERPLSGDAWAVAIINRQEIGGPRSYTIPVASLGKGVACNPACFITQLLPVKRQLGFYNWTSRLKSHINPTGTVLLQLENTMQMSLKDLL | + (0.5 to 1.5 relative activity over Rd4BB (SEQ ID NO: 15)) | − (<0.5 relative activity over Rd4BB (SEQ ID NO: 15)) | + (0.5 to 1.5 relative activity over Rd4BB (SEQ ID NO: 15))
442 (protein, Synthetic Polypeptide sequence of Variant No. 442 of mature Human GLA) LDNGLARTPTMGWLHWERFMCNLDCQEEPDSCISEKLFMEMAERMVSEGWKDAGYEYLCIDDCWMAPQRDSEGRLQADPQRFPHGIRQLANYVHSKGLKLGIYADVGNKTCAGFPGSFGYYDIDAQTFADWGVDLLKFDGCYCDSLENLADGYKHMSLALNRTGRSIVYSCEWPLYMWPFQKPNYTEIRQYCNHWRNFADIDDSWKSIKSILDWTSRNQERIVDVAGPGGWNDPDMLVIGNFGLSWDQQVTQMAAWAIMAAPLFMSNDLRHISPQAKALLQDKDVIAINQDPLGKQGYQLRKGDNFEVWERPLSGDAWAVAIINRQEIGGPRSYTIPVASLGKGVACNPACFITQLLPVKRQLGFYNWTSRLKSHINPTGTVLLQLENTMQMSLKDLL | + (0.5 to 1.5 relative activity over Rd4BB (SEQ ID NO: 15)) | + (0.5 to 1.5 relative activity over Rd4BB (SEQ ID NO: 15)) | − (<0.5 relative activity over Rd4BB (SEQ ID NO: 15))
443 (protein, Synthetic Polypeptide sequence of Variant No. 443 of mature Human GLA) LDNGLARTPTMGWLHWERFMCNLDCQEEPDSCISEKLFMEMAERMVSEGWKDAGYEYLCIDDCWMAPQRDSEGRLQADPQRFPHGIRQLANYVHSKGLKLGIYADVGNKTCAGFPGSFGYYDIDAQTFADWGVDLLKFDGCYCDSLENLADGYKHMSLALNRTGRSIVYSCEWPLYMWPFQKPNYTEIRQYCNHWRNFADIDDSWASIKSILDWTSRNQERIVDVAGPGGWNDPDMLVIGNFGLSWDQQVTQMASWAIMAAPLFMSNDLRHISPQAKALLQDKDVIAINQDPLGKQGYQLRKGDNFEVWERPLSGDAWAVAIINRQEIGGPRSYTIPVASLGKGVACNPACFITQLLPVKRQLGFYNWTSRLKSHINPTGTVLLQLENTMQMSLKDLL | + (0.5 to 1.5 relative activity over Rd4BB (SEQ ID NO: 15)) | +++ (>2.5 relative activity over Rd4BB (SEQ ID NO: 15)) | − (<0.5 relative activity over Rd4BB (SEQ ID NO: 15))
444 (protein, Synthetic Polypeptide sequence of Variant No. 444 of mature Human GLA) LDNGLARTPTMGWLHWERFMCNLDCQEEPDSCISEKLFMEMAERMVSEGWKDAGYEYLCIDDCWMAPQRDSEGRLQADPQRFPHGIRQLANYVHSKGLKLGIYADVGNKTCAGFPGSFGYYDIDAQTFADWGVDLLKFDGCYCDSLENLADGYKHMSLALNRTGRSIVYSCEWPLYMWPFQKPNYTEIRQYCNHWRNFADIDDSWKSIKSILDWTSRNQERIVDVAGPGGWNDPDMLVIGNFGLSWDQQVTQMALWAIWAAPLFMSNDLRHISPQAKALLQDKDVIAINQDPLGKQGYQLRKGDNFEVWERPLSGDAWAVAIINRQEIGGPRSYTIPVASLGKGVACNPACFITQLLPVKRQLGFYNWTSRLKSHINPTGTVLLQLENTMQMSLKDLL | + (0.5 to 1.5 relative activity over Rd4BB (SEQ ID NO: 15)) | − (<0.5 relative activity over Rd4BB (SEQ ID NO: 15)) | + (0.5 to 1.5 relative activity over Rd4BB (SEQ ID NO: 15))
445 (protein, Synthetic Polypeptide sequence of Variant No. 445 of mature Human GLA) LDNGLARTPTMGWLHWERFMCNLDCQEEPDSCISEKLFMEMAERMVSEGWKDAGYEYLCIDDCWMAPQRDSEGRLQADPQRFPHGIRQLANYVHSKGLKLGIYADVGNKTCAGFPGSFGYYDIDAQTFADWGVDLLKFDGCYCDSLENLADGYKHMSLALNRTGRSIVYSCEWPLYMWPFQKPNYTEIRQYCNHWRNFADIDDSWKSIKSILDWTSRNQERIVDVAGPGGWNDPDMLVIGNFGLSWDQQVTQMALWAIMAAPFFMSNDLRHISPQAKALLQDKDVIAINQDPLGKQGYQLRKGDNFEVWERPLSGDAWAVAIINRQEIGGPRSYTIPVASLGKGVACNPACFITQLLPVKRQLGFYNWTSRLKSHINPTGTVLLQLENTMQMSLKDLL | + (0.5 to 1.5 relative activity over Rd4BB (SEQ ID NO: 15)) | + (0.5 to 1.5 relative activity over Rd4BB (SEQ ID NO: 15)) | − (<0.5 relative activity over Rd4BB (SEQ ID NO: 15))
446 (protein, Synthetic Polypeptide sequence of Variant No. 446 of mature Human GLA) LDNGLARTPTMGWLHWERFMCNLDCQEEPDSCISEKLFMEMAERMVSEGWKDAGYEYLCIDDCWMAPQRDSEGRLQADPQRFPHGIRQLANYVHSKGLKLGIYADVGNKTCAGFPGSFGYYDIDAQTFADWGVDLLKFDGCYCDSLENLADGYKHMSLALNRTGRSIVYSCEWPLYMWPFQKPNYTEIRQYCNHWRNFADIDDSWKSIKSILDWTSRNQERIVDVAGPGGWNDPDMLVIGNFGLSWDQQVTQMALWAIAAAPLFMSNDLRHISPQAKALLQDKDVIAINQDPLGKQGYQLRKGDNFEVWERPLSGDAWAVAIINRQEIGGPRSYTIPVASLGKGVACNPACFITQLLPVKRQLGFYNWTSRLKSHINPTGTVLLQLENTMQMSLKDLL | + (0.5 to 1.5 relative activity over Rd4BB (SEQ ID NO: 15)) | − (<0.5 relative activity over Rd4BB (SEQ ID NO: 15)) | − (<0.5 relative activity over Rd4BB (SEQ ID NO: 15))
447 (protein, Synthetic Polypeptide sequence of Variant No. 447 of mature Human GLA) LDNGLARTPTMGWLHWERFMCNLDCQEEPDSCISEKLFMEMAERMVSEGWKDAGYEYLCIDDCWMAPQRDSEGRLQADPQRFPHGIRQLANYVHSKGLKLGIYADVGNKTCAGFPGSFGYYDIDAQTFADWGVDLLKFDGCYCDSLENLADGYKHMSLALNRTGRSIVYSCEWPLYMWPFQKPNYTEIRQYCNHWRNFADIDDSWKSIKSILDWTSRNQERIVDVAGPGGWNDPDMLVIGNFGLSWDQQVTQMALWAIMAAPWFMSNDLRHISPQAKALLQDKDVIAINQDPLGKQGYQLRKGDNFEVWERPLSGDAWAVAIINRQEIGGPRSYTIPVASLGKGVACNPACFITQLLPVKRQLGFYNWTSRLKSHINPTGTVLLQLENTMQMSLKDLL | + (0.5 to 1.5 relative activity over Rd4BB (SEQ ID NO: 15)) | − (<0.5 relative activity over Rd4BB (SEQ ID NO: 15)) | − (<0.5 relative activity over Rd4BB (SEQ ID NO: 15))
366 (protein, Synthetic Polypeptide sequence of Variant No. 366 of mature Human GLA) LDNGLARTPTMGWLHWERFMCNLDCQEEPDSCISEKLFMEMAERMVVEGWKDAGYEYLCIDDCWMAPQRDSEGRLQADPQRFPHGIRQLANYVHSKGLKLGIYADVGNKTCAGFPGSFGYYDIDAQTFADWGVDLLKFDGCYCDSLENLADGYKHMSLALNRTGRSIVYSCEWPLYMWPFQKPNYTEIRQYCNHWRNFADIDDSWKSIKSILDWTSRNQERIVDVAGPGGWNDPDMLVIGNFGLSWDQQVTQMALWAIMAAPLFMSNDLRHISPQAKALLQDKDVIAINQDPLGKQGYQLRKGDNFEVWERPLSGDAWAVAIINRQEIGGPRSYTIPVASLGKGVACNPACFITQLLPVKRQLGFYNWTSRLKSHINPTGTVLLQLENTMQMSLKDLL | + (0.5 to 1.5 relative activity over Rd4BB (SEQ ID NO: 15)) | + (0.5 to 1.5 relative activity over Rd4BB (SEQ ID NO: 15)) | + (0.5 to 1.5 relative activity over Rd4BB (SEQ ID NO: 15))
